Measured values: US20080108793

Test system: crotonyl-ACP

In the case of “N-terminal His-tagged F. tularensis FabI”, the Km (crotonyl-ACP) is reported as 4.4 µM.
